We go through two substances from US20180305451A1.

The target in assay [1] is putative molecular counterpart of HIDE1 on T cells. The assay is described as follows: flow cytometry on U937 human myeloid cell line, live singlets; PE tetramer at 3 µg/well (60 µg/ml); the text calls this no binding; Tetramer-EGFR in the same box reads 79.6. (In flow cytometry, cells or beads pass a laser one at a time.)
Assay [2] has the same target. Briefly: flow cytometry on H9 human T cell line, live singlets; PE tetramer at 3 µg/well (60 µg/ml).
Assay [3] shares this target. Briefly: FACS, tetramer on CD4+ T cells activated for 72 h.
The target is the same in assay [4]. Briefly: flow cytometry on H9 human T cell line, live singlets; negative control PE tetramer at 3 µg/well (60 µg/ml).

Regarding “HIDE1 tetramer (from UniProt A8MVS5 20-117)”, the figures for the Geometric Mean (B2-A) in assay [1] and in assay [2] were 86.2 and 731, respectively. Besides, the fold increase in the Geo Mean compared to EGFR negative control in assay [3] came to 3 fold.
Substance Tetramer-EGFR (from UniProt P00533) had a Geometric Mean (B2-A) in assay [4] of 82.1.
